# B1: Aedes aegypti Nest1 (neutrophil-stimulating factor 1), recombinant, amino acids 22 to 316 (natural protein)
# chain: KPTQGSCTLTDEDISDIKSAVQKASKAAVNDIVLDPTLIDKCPMLEKITASLKSVATEIVQMRDSAISTDQVDQLKQNFEDQVNQIVKSRDIFEKQSGTQATKEHGEMLERMTALQVKVTELEQQIAKQTASMYEDMAELIFQRLQMNSTESVRSYTKHMMEEKLEELMNKLETNYRIYLGALRFLNHMNDQELIGKVFDGILKRLGDMKADSDDVKENGRNLLVNLLCWTVNNDFLGKKYKERQVDLYRMALKFYPKTYEKAANEADVRSRQFCEENFPANLITWFAVSWNDRG
# modifications: biotin (BirA500 kit) in the yeast library screen
# Target: human CD47 (19 to 135) tagged with human immunoglobulin G1 Fc (N297A) (human, UniProt Q08722 19-135, biotin (NHS-biotin, 10-fold molar excess) in SPR)
# Sequence (Q08722 19-135, stated change not applied): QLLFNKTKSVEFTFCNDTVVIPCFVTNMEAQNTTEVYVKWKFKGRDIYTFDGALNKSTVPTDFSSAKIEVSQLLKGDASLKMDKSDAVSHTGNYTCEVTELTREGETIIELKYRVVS
# Assay: SPR
binder,measurement,value
B1,koff,0.0121 s⁻¹

# Reference: article PMC11924945 (2024)
